This sample holds only a part of the variants without activity.
B1: TPR 5TU (parent)
chain: GGAUCUUCUCGAUCUAACAAAAAAGACAAAUCUGCCACAAAGCUUGAGAGCAUCUUCGGAUGCAGAGGCGGCAGCCUUCGGUGGCGCGAUAGCGCCAACGUUCUCAACUAUGACACGCAAAACGCGUGCUCCGUUGAAUGGAGUUUAUCAUG

Variants of: B1
Test: polymerase ribozyme fitness, log enrichment relative to wild type (log ratio); higher = more active; in vitro selection for triplet polymerase activity
Method in brief: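 Mutant libraries for each subunit of a heterodimeric triplet polymerase ribozyme were made by PCR and then transcribed. Each library underwent one round of in vitro selection in triplicate: annealing with a biotinylated primer, the partner subunit and triplets, frozen incubation at −7 °C, gel excision of extended constructs, streptavidin-bead capture and RT-PCR. Input and output libraries were Illumina-sequenced, and only genotypes with ≥10 input reads and ≥1 read per output were kept. Fitness is the logarithm, base 2, of genotype enrichment over wild-type enrichment, computed from inverse-variance-weighted replicate averages.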

Variant	polymerase ribozyme fitness (log ratio)
A66U C75G U82G A106C C116U	≤ -4.2
U61G C87A A150G	≤ -4.2
U61C U104G G126C	-2.04
C63U C85G U127A U139A U145C	≤ -4.2
U61A G86A A122G	-2.67
A64G A137G	≤ -4.2
U61A C96G G117A	-2.2
C63A C76G C85U C96U A97G C116G	≤ -4.2
A64G G68A	≤ -4.2
C63A A64C C72U A89U U130G	≤ -4.2
C63U C69A C87A G140C	≤ -4.2
G62C C63U C79A C85U A98U C99U C131A U135C U144A	≤ -4.2
A66C G92C C96G A120G	-4.14
G62U C72G C93A	≤ -4.2
G62A	-0.367
G62U	-0.546
G62C	-1.07
A64G C99A G143A	≤ -4.2
U61G A122C	-1.51
U61G U82C A89U A120U U135A	-2.52
G62C C95U C96A	-3.59

Variant	polymerase ribozyme fitness (log ratio)
C63U C95U	-0.692
A66G	-2.32
A66C	-4.16
A66U	-3.46
A66G U102A U135C	≤ -4.2
A66G C69A G84U A138U	≤ -4.2
C63G C69G	-1.75
U61A U90G U139C	≤ -4.2
G62A A64U C69U C76U G84A C105G C116G	≤ -4.2
A66U G68C C105A	≤ -4.2
U61A G124C	-2
C63U C76A C103G U146G U148G	≤ -4.2
C63G G83A A98C U104A	-0.841
C63U A91U C93G U139G	≤ -4.2
G62U G94U C96U	-3.88
C63U A98G G126U C129G	≤ -4.2
G65A C85U A97U	-2.46
C63U G65A A73U A115G U134G	≤ -4.2
A66G U77A G83U U104A G117U	≤ -4.2
G62U G124C	-1.42
G65A C75A G81U G94A C105U G140U	-3.7

Variant	polymerase ribozyme fitness (log ratio)
U61G G86A	-2.45
U61A C125U	-1.86
U61A C125A	-2.73
G62A A66G G86U A121G U127C	≤ -4.2
C63G G65C C93G A137C A142U	≤ -4.2
G67C G68A G83A U90A G117A	≤ -4.2
G67A G81A A91C A137C U148C	≤ -4.2
A66U C76G C85A C95U U102G A113U C116A A142C	≤ -4.2
C63U G126C	0.627
U61C A98U C103G A115G C131U	≤ -4.2
U61A G84A	-1.38
U61A C96A G126A C131U	-2.54
U61A C96G	-2.6
A64G A91C	≤ -4.2
G67A C85G A106G C129U G140C G143A	≤ -4.2
C63G C93A A98G C116U G140C	≤ -4.2
U61A G140A	≤ -4.2
C63G A110U G136U U148A	≤ -4.2
U61G A66C A150G	≤ -4.2
U61G C99U	-2.77
A66G C85U U111G U146A	≤ -4.2

Variant	polymerase ribozyme fitness (log ratio)
U61G C93U	-1.89
U61G C93A	-4.13
U61G C69G U82A C95A A122U U148C	≤ -4.2
A66G U90G C93G	≤ -4.2
C63U A119U U144C	-0.319
A64U A121C G143A	≤ -4.2
A64G G80U C85U C93U G94U C103U	-4.18
G62A C93G U130C	-3.01
U61G C85A G141A	-1.58
U61G U101C	-2.61
U61A C105U U134G U139G	-4.18
C63G C95A A110G A122U	-3.22
A64C A73U G84A U102G C116A	≤ -4.2
A64C G71A A107G G141C	≤ -4.2
C63U C125U G133U	-3.67
U61G C87U C125G	≤ -4.2
C63G U90A C99G U148A	≤ -4.2
A66G C76U C85A C96U	≤ -4.2
A66G G68C U102A	≤ -4.2
A66G C123G	≤ -4.2

Reference: the RNAGym collection of RNA variant scans (doi:10.1073/pnas.2313332121)
